Laboratory results: publication PMC8548718 (Frontiers in Molecular Biosciences, 2021)

Target: T1, PD1-Fc (UniProt Q15116)
T1 construct: PD-1 (programmed cell death protein 1); most likely the extracellular domain of human PD-1 on a human IgG Fc
Experiment: BLI; BLItz system; biotinylated 102c3 nanobody immobilised on SA2 biosensors, dipped in serial dilutions of PD1-Fc
Conditions: both partners purified

T1 sequence (Q15116 25-170): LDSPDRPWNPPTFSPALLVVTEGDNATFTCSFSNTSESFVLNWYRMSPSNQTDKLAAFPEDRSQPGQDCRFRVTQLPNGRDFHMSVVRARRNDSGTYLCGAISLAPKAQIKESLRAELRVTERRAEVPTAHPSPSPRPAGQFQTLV

B1: nanobody 102c3 (anti-PD1 single-domain antibody, VHH), biotinylated (VHH)
VHH: EVQLVESGGGLVQAGKSLRLSCAASGSIFSIHAMGWFRQAPGKEREFVAAITWSGGITYYEDSVKGRFTISRDNAKNTVYLQMNSLKPEDTAIYYCAADRAESSWYDYWGQGTQVTVSS
notes: the whole synthesised fragment translates to MGSR...PQPDPSP; also called 102c3 nanobody; 102c3 VHH; source: E. coli BL21DE3-BirA, periplasm extract, purified (HIS Mag Sepharose Excel, dialysis against PBS); not shown: biotinylation signal, C-terminal, kept
- binding result: binds
